In patent publication US11535824B2, “Nuclear transfer” (Sung Kwang Medical Foundation, priority 2015, dated 2022):

Tests used:
[1] = test system: cancer models; conditions: variety of in vitro and in vivo cancer models; cited from earlier work
[2] = test system: primary human fibroblasts; conditions: without MYC or KLF4; cited from earlier work
[3] = test system: H4R3; conditions: cited from earlier work
[4] = test system: SCNT-generated embryos; conditions: cited from earlier work
[5] = test system: adult stem cells; conditions: cited from earlier work
[6] = test system: mouse embryos obtained from SCNT; test: CPP-CARM1 protein treatment of 8-cell SCNT embryos; development to blastocyst; type: cell-based; conditions: for % of developed to BLs: calculated from 2 cell cleavaged embryos
Protocol: The above preliminary results were extended in further studies utilizing protein treatment. SCNT oocytes were cultured with protein of CARM1 on third day after formation of fertilized embryo to investigate the influence on the development rate into blastocyst. Specifically, mouse embryos obtained from SCNT were cultured to 8-cell stage in embryo culture medium (potassium simplex-optimized medium, KSOM; Millipore, Danvers, Mass.) containing 10% SPS (Sage, Trumbull, Conn.). And then, 8-cell embryos were cultured at 37° C. and 5% CO2 for 48 h in embryo culture medium with 2 μg/ml CPP-CARM1 recombinant protein or DsRed protein (control—non-functional protein) under mineral oil (Sage). Embryonic development was monitored for a further 2 days. CARM1 or DsRed cDNA was inserted into a pET vector to construct an expression plasmid for CARM1 conjugated to 7× arginine (a cell-penetrating peptide (CPP) domain) and a 6×His-tag. The CPP-CARM1 protein expression vector was transformed into BL21 (DE3) pLysS-competent cells (Stratagene Inc., La Jolla, Calif.). Transformed cells were cultured and induced by 1 mM isopropyl-1-thio-β-D-galactopyranoside (IPTG) for 8 h at 20° C. to produce the CPP-CARM1 or DsRed proteins.

Question: Which anticancer chemotherapeutic activity [1] does the source give for `CC(C)N(C[C@H]1O[C@@H](n2cnc3c(N)ncnc32)[C@H](O)[C@@H]1O)[C@H]1C[C@@H](CCc2nc3cc(C(C)(C)C)ccc3[nH]2)C1` [EPZ5676] here?
Answer: exhibit anticancer chemotherapeutic activity

Question: Which anticancer chemotherapeutic activity [1] does the source give for `Cc1cc(C)c(CNC(=O)c2cc(-c3ccc(CN4CCOCC4)cc3)cc3c2cnn3C2CCCC2)c(=O)[nH]1` [EPZ005687] here?
Answer: exhibit anticancer chemotherapeutic activity

Question: For `CC[C@H](C)n1cc(C)c2c(C(=O)NCc3c(C)cc(C)[nH]c3=O)cc(-c3ccc(N4CCNCC4)nc3)cc21` [GSK126], which anticancer chemotherapeutic activity [1] is on record?
Answer: exhibit anticancer chemotherapeutic activity

Question: For `CCCC(CCC)C(=O)O` [Valproic acid], which “reprogramming with two factors, OCT4 and SOX2” value [2] is on record?
Answer: enables the reprogramming

Question: For `Nc1ccc(S(=O)(=O)c2ccc(NCN3C(=O)NC(=O)C(=O)C3=O)cc2)cc1` [allantodapsone], which “methylation at H4R3” value [3] is on record?
Answer: hypomethylation

Question: For `CC(/C=C/C(=O)NO)=C\[C@@H](C)C(=O)c1ccc(N(C)C)cc1` [trichostatin A], which “chromosome decondensation and nuclear volume” value ([4]; SCNT-generated embryos) is on record?
Answer: increase

Question: And the cloning efficiency ([4]; additive in nuclear transfer)?
Answer: improve cloning efficiency

B1: coactivator-associated arginine methyltransferase 1 (protein, UniProt Q86X55 2-608, looked up)
Histone-arginine …: AAAAAAVGPGAGGAGSAVPGGAGPCATVSVFPGARLLTIGDANGEIQRHAEQQALRLEVRAGPDSAGIALYSHEDVCVFKCSVSRETECSRVGKQSFIITLGCNSVLIQFATPNDFCSFYNILKTCRGHTLERSVFSERTEESSAVQYFQFYGYLSQQQNMMQDYVRTGTYQRAILQNHTDFKDKIVLDVGCGSGILSFFAAQAGARKIYAVEASTMAQHAEVLVKSNNLTDRIVVIPGKVEEVSLPEQVDIIISEPMGYMLFNERMLESYLHAKKYLKPSGNMFPTIGDVHLAPFTDEQLYMEQFTKANFWYQPSFHGVDLSALRGAAVDEYFRQPVVDTFDIRILMAKSVKYTVNFLEAKEGDLHRIEIPFKFHMLHSGLVHGLAFWFDVAFIGSIMTVWLSTAPTEPLTHWYQVRCLFQSPLFAKAGDTLSGTCLLIANKRQSYDISIVAQVDQTGSKSSNLLDLKNPFFRYTGTTPSPPPGSHYTSPSENMWNTGSTYNLSSGMAVAGMPTAYDLSSVIASGSSVGHNNLIPLANTGIVNHTHSRMGSIMSTGIVQGSSGAQGSGGGSTSAHYAVNSQFTMGGPAISMASPMSIPTNTMHYGS
notes: member of the protein arginine methyltransferase (PRMT) family
Question: With B1 as the molecule, how does the “expression of Oct-4, Sox-2 and nanog” value [5] read?
Answer: upregulated

Question: And the “No. of developed to BLs” value ([6]; Total of three experiments)?
Answer: 26

Question: What about the “% of developed to BLs” value ([6]; Total of three experiments) of the same molecule?
Answer: (38.2) %

Question: And the “% of developed to BLs” value ([6]; experiment 1)?
Answer: (46.2) %

Question: What about the “No. of developed to BLs” value ([6]; experiment 1, treatment D 3, cumulus donor cell, KSOM) of the same molecule?
Answer: 12

Question: And the “% of developed to BLs” value ([6]; experiment 2)?
Answer: (40) %

Question: What about the “No. of developed to BLs” value ([6]; experiment 2, treatment D 3, cumulus donor cell, KSOM) of the same molecule?
Answer: 10

Question: What about the “% of developed to BLs” value ([6]; experiment 3) of the same molecule?
Answer: (23.5) %

Question: And the “No. of developed to BLs” value ([6]; experiment 3, treatment D 3, cumulus donor cell, KSOM)?
Answer: 4
